{"source": "paper PMC2532715", "binders": {"B1": {"name": "Cognate 18 (dsDNA)", "DNA 1": "GAGTCCACCGGTGGACTC", "DNA 2": "GAGTCCACCGGTGGACTC"}}, "target": "T1, SgrAI restriction endonuclease (UniProt Q9F6L0 1-338)", "T1 sequence": "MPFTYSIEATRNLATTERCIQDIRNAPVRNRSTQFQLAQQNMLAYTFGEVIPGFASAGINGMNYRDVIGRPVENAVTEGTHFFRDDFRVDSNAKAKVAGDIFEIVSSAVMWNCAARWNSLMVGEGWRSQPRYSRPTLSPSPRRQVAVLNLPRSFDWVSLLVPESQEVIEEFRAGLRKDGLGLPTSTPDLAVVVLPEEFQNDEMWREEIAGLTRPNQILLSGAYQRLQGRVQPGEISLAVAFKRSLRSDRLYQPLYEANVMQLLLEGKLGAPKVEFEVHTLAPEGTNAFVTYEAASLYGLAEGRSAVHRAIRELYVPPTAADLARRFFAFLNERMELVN", "assay": "X-ray crystallography"}
{"binder": "B1", "values": [{"measurement": "binding result", "value": "binds"}]}
